Assay results from patent US20140363844.

What was measured:
[1] = biological target: T1, Presegetalin A1[14,32]A19a
T1 chain: GVPVWAFQAKDVENASAPV

[2] = biological target: T2, Presegetalin B1[14,31]
T2 chain: GVAWAFQAKDVENASAPV

[3] = biological target: T3, Dianthus Precursor A[14,33]
T3 chain: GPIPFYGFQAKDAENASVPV

[4] = biological target: T4, Presegetalin H1[14,31]
T4 chain: GYRFSFQAKDAENASAPV

[5] = biological target: T5, Dianthus Precursor B[14,32]
T5 chain: GYKDCCVQAKDLENAAVPV

[6] = biological target: T6, Presegetalin F1[14,38]
T6 chain: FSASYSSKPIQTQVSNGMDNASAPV

[7] = biological target: T7, Presegetalin A1[14,28]
T7 chain: GVPVWAFQAKDVENA

[8] = biological target: T8, Presegetalin A1[14,32]A30V
T8 chain: GVPVWAFQAKDVENASVPV

[9] = biological target: T9, Presegetalin A1[14,32]P16A
T9 chain: GVAVWAFQAKDVENASAPV

[10] = biological target: T10, Presegetalin L1[14,32]
T10 chain: GLPGWPFQAKDVENASAPV

B1: Saponaria vaccaria PCY1 (recombinant, N-terminal His6-tag, expressed in E. coli from pCB008) (protein)
chain: MATSGFSKPLHYPPVRRDETVVDDYFGVKVADPYRWLEDPNSEETKEFVDNQEKLANSVLEECELIDKFKQKIIDFVNFPRCGVPFRRANKYFHFYNSGLQAQNVFQMQDDLDGKPEVLYDPNLREGGRSGLSLYSVSEDAKYFAFGIHSGLTEWVTIKILKTEDRSYLPDTLEWVKFSPAIWTHDNKGFFYCPYPPLKEGEDHMTRSAVNQEARYHFLGTDQSEDILLWRDLENPAHHLKCQITDDGKYFLLYILDGCDDANKVYCLDLTKLPNGLESFRGREDSAPFMKLIDSFDASYTAIANDGSVFTFQTNKDAPRKKLVRVDLNNPSVWTDLVPESKKDLLESAHAVNENQLILRYLSDVKHVLEIRDLESGALQHRLPIDIGSVDGITARRRDSVVFFKFTSILTPGIVYQCDLKNDPTQLKIFRESVVPDFDRSEFEVKQVFVPSKDGTKIPIFIAARKGISLDGSHPCEMHGYGGFGINMMPTFSASRIVFLKHLGGVFCLANIRGGGEYGEEWHKAGFRDKKQNVFDDFISAAEYLISSGYTKARRVAIEGGSNGGLLVAACINQRPDLFGCAEANCGVMDMLRFHKFTLGYLWTGDYGCSDKEEEFKWLIKYSPIHNVRRPWEQPGNEETQYPATMILTADHDDRVVPLHSFKLLATMQHVLCTSLEDSPQKNPIIARIQRKAAHYGRATMTQIAEVADRYGFMAKALEAPWID
CP (cyclic peptide product detected by LC/MS) [1]: - | LP (linear peptide product detected by LC/MS) [1]: - | CP (cyclic peptide product detected by LC/MS) [2]: + | LP (linear peptide product detected by LC/MS) [2]: - | CP (cyclic peptide product detected by LC/MS) [3]: + | LP (linear peptide product detected by LC/MS) [3]: - | cyclic peptide product (LC/MS, MS/MS) [3]: there was a small amount of cyclic peptide production from No. 43 | CP (cyclic peptide product detected by LC/MS) [4]: + | LP (linear peptide product detected by LC/MS) [4]: - | CP (cyclic peptide product detected by LC/MS) [5]: - | LP (linear peptide product detected by LC/MS) [5]: - | CP (cyclic peptide product detected by LC/MS) [6]: + | LP (linear peptide product detected by LC/MS) [6]: - | CP (cyclic peptide product detected by LC/MS) [7]: - | LP (linear peptide product detected by LC/MS) [7]: + | linear peptide formation (LC/MS, MS/MS) [7]: showed linear peptide formation almost equivalent to the linear peptide formed from the WT substrate (No. 1) | CP (cyclic peptide product detected by LC/MS) [8]: + | LP (linear peptide product detected by LC/MS) [8]: + | linear segetalin A production relative to WT substrate [8]: showed a relative increase in production of linear segetalin A | CP (cyclic peptide product detected by LC/MS) [9]: + | LP (linear peptide product detected by LC/MS) [9]: + | CP (cyclic peptide product detected by LC/MS) [10]: + | LP (linear peptide product detected by LC/MS) [10]: -
